Experiments:
Assay in all cases: purified protein
purified protein [1] = substrate: CCOC(=O)[C@H](CCCNC(=N)N)NC(=O)c1ccccc1; details: free enzyme, 37 °C, pH not told, substrate of the kinetics taken from the activity assay
purified protein [2] = substrate: CC(=O)Oc1ccc([N+](=O)[O-])cc1; format: biochemical, Moesziomyces antarcticus; details: free enzyme, PBS 100 mM pH 6.5, 37 °C, substrate of the kinetics taken from the activity assay
purified protein [3] = substrate: CC(=O)Oc1ccc([N+](=O)[O-])cc1; format: biochemical, Thermomyces lanuginosus; details: free enzyme, PBS 100 mM pH 6.5, 37 °C, substrate of the kinetics taken from the activity assay

B1: Papain (Carica papaya) (protein)
chain: IPEYVDWRQKGAVTPVKNQGSCGSCWAFSAVVTIEGIIKIRTGNLNEYSEQELLDCDRRSYGCNGGYPWSALQLVAQYGIHYRNTYPYEGVQRYCRSREKGPYAAKTDGVRQVQPYNEGALLYSIANQPVSVVLEAAGKDFQLYRGGIFVGPCGNKVDHAVAAVGYGPNYILIKNSWGTGWGENGYIRIKRGTGNSYGVCGLYTSSFYPVKN
Purified protein [1]
  Km: 1.01 ± 0.05 mM
  kcat: 2.67 s⁻¹
  kcat/Km: 2670 M⁻¹ s⁻¹

B2: Lipase B from Candida antarctica (CALB) (Moesziomyces antarcticus) (protein)
chain: LPSGSDPAFSQPKSVLDAGLTCQGASPSSVSKPILLVPGTGTTGPQSFDSNWIPLSTQLGYTPCWISPPPFMLNDTQVNTEYMVNAITALYAGSGNNKLPVLTWSQGGLVAQWGLTFFPSIRSKVDRLMAFAPDYKGTVLAGPLDALAVSAPSVWQQTTGSALTTALRNAGGLTQIVPTTNLYSATDEIVQPQVSNSPLDSSYLFNGKNVQAQAVCGPLFVIDHAGSLTSQFSYVVGRSALRSTTGQARSADYGITDCNPLPANDLTPEQKVAAAALLAPAAAAIVAGPKQNCEPDLMPYARPFAVGKRTCSGIVTP
Purified protein [2]
  Km: 6.36 ± 0.321 mM
  kcat: 56.8 ± 2.73 s⁻¹
  kcat/Km: 8920 ± 23 M⁻¹ s⁻¹

B3: Lipase from Thermomyces lanuginosus (TLL) (Thermomyces lanuginosus) (protein)
chain: EVSQDLFNQFNLFAQYSAAAYCGKNNDAPAGTNITCTGNACPEVEKADATFLYSFEDSGVGDVTGFLALDNTNKLIVLSFRGSRSIENWIGNLNFDLKEINDICSGCRGHDGFTSSWRSVADTLRQKVEDAVREHPDYRVVFTGHSLGGALATVAGADLRGNGYDIDVFSYGAPRVGNRAFAEFLTVQTGGTLYRITHTNDIVPRLPPREFGYSHSSPEYWIKSGTLVPVTRNDIVKIEGIDATGGNNQPNIPDIPAHLWYFGLIGTCL
Purified protein [3]
  Km: 16.58 ± 0.793 mM
  kcat: 29.3 ± 1.26 s⁻¹
  kcat/Km: 1770 ± 8 M⁻¹ s⁻¹

Reference: publication PMC9080259, “Dual-cycle immobilization to reuse both enzyme and support by reblossoming enzyme–inorganic hybrid nanoflowers” (RSC Advances, 2018)
